The target of experiment [1] is trastuzumab (wild-type Fc) (human).
Experiment [2] has as its target trastuzumab-PFc29 (human).

Two substances from article PMC12297522 can be followed below.

Regarding “human FcRn-GST (from UniProt P55899 24-365) (receptor)”, the serum half-life (t1/2) in hiFcRn mice, 5 mg/kg i.v. in experiment [1] was 8.3 days. In addition, the serum half-life in hiFcRn mice, 5 mg/kg i.v. in experiment [2] stood at 18.9 days.
With “mouse FcRn-GST (from UniProt Q61559 22-365) (receptor)”, the serum half-life (t1/2) in C57BL/6 mice, 5 mg/kg i.v. in experiment [1] stood at 13.1 days. Besides, the serum half-life in C57BL/6 mice, 5 mg/kg i.v. in experiment [2] worked out at 10.5 days.
